From IntAct's records for PubMed 23932588

B1: Tyrosine-protein phosphatase non-receptor type 5 (Mus musculus), P54830-1 (parent)
chain: MCCSERLLGLPQPVEMEAPDEAEGLPSKQKEMPPPPPPSPPSEPAQKLPPQGAGSHSLTVRSSLCLFAASQFLLACGVLWLSGHGHSWLQNTTDLISSSLTVLNHLGPVAWLGSGTWGIPSLLLVSLTVSLVIVTTLVWHLLKAPPEPPAPLPPEDRRQSVSRQPSFTYSEWMEEKVEDDFLDLDAVPETPVFDCVMDIKPETDPASLTVKSMGLQERRGSNVSLTLDMCTPGCNEEGFGYLVSPREESAHEYLLSASRVLRAEELHEKALDPFLLQAEFFEIPMNFVDPKEYDIPGLVRKNRYKTILPNPHSRVRLTSPDPEDPLSSYINANYIRGYSGEEKVYIATQGPIVSTVADFWRMVWQERTPIIVMITNIEEMNEKCTEYWPEEQVVHDGVEITVQKVIHTEDYRLRLISLRRGTEERSLKHYWFTSWPDQKTPDRAPPLLHLVREVEEAAQQEGPHCSPIIVHCSAGIGRTGCFIATSICCQQLRREGVVDILKTTCQLRQDRGGMIQTCEQYQFVHHAMSLYEKQLSLQSSE

Variants of: B1
Details: with MAPK14, Q16539-1
Chain of MAPK14, Q16539-1 (Q16539 whole entry): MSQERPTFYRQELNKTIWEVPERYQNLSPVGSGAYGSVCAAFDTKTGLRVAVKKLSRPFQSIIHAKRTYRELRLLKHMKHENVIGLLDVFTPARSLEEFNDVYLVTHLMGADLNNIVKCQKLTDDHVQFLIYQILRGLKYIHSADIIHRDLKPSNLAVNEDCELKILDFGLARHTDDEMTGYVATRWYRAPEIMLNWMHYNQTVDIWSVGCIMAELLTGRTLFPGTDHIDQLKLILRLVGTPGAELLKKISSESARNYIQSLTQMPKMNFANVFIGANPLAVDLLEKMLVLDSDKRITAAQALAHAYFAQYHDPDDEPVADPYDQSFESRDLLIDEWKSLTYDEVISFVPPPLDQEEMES

Variant | effect of a mutation on the interaction
F281A;I307A | decreasing interaction strength
F274A;F281A | decreasing interaction strength
